Laboratory results from doi:10.1101/2020.12.21.423864.

Molecular target: Cadherin-11 extracellular domain 1 (Cad11-EC1), wild type, residues 1-98
Assay: NMR

stoichiometry N: 2
Substance: Cadherin-11 extracellular domain 1 (Cad11-EC1), wild type, residues 1-98 (domain or fragment)
